Measured values as given in the nanobody polyreactivity screen of Harvey et al. (2022).

Test: yeast display, Sf9 membrane polyspecificity reagent, FACS + sequencing; frameworks hold sequencing errors
Outline: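 Galactose-induced (36–48 hours) yeast carrying a synthetic nanobody display library were exposed to 10% biotinylated, detergent-solubilized Sf9 membrane reagent at 4 °C for 1 hour. FACS followed streptavidin microbead enrichment, using low and high (top ~1%) gates for expression (anti-HA) and reagent binding (streptavidin). Colony PCR, MiSeq 2 × 250 sequencing and CDR-length filtering followed. Labels for polyreactivity reflect the gate of origin.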

Row | Sequence | polyreactivity (PSR sort gate)
1 | QVQLVESGGGLVQAGGSLRLSCAASGRTFVKYAMGWYRQAPGKERELVAAISWSGGSTYYADSVKGRFTISRDNAKNTVYLQMNSLKPEDTAVYYCNTAQRYRVYRYDYWGQGTQVTVSS | high polyreactivity
2 | QVQLVESGGGLVQAGGSLRLSCAASGRTFVNNAMGWYRQAPGKERELVAAISRSGGSTYYADSVKGRFTISRDNAKNTVYLQMNSLKPEDTAVYYCNKASNVRGYEYWGQGTQVTVSS | high polyreactivity
3 | QVQLVESGGGLVQAGGSLRLSCAASGRTFVPYAMGWYRQAPGKEREFLAAISWRGGSTYYADSVKGRFTISRDNAKNTVYLQMNSLKPEDTAVYYCAARYKRGFGVRFGYDYWGQGTQVTVSS | high polyreactivity
4 | QVQLVESGGGLVQAGGSLRLSCAASGRTFVPYVMGWYRQAPGKERELVAAISSSGGNTYYADSVKGRFTISPDNAKNTVYLQMNSLKPEDTAVYYCAARPRGYVYPGYYYWGQGSQVTVSS | high polyreactivity
5 | QVQLVESGGGLVQAGGSLRLSCAASGRTFVRNAKGWYRQAPGKERELVAAITSGGSTYYADSVKGRFTISRDNAKNTVYLQMNSLKPEDTAVYYCAAISTWGTKYDYWGQGTQVTVSS | high polyreactivity
6 | QVQLVESGGGLVQAGGSLRLSCAASGRTFVRNAMGWSRQAPGKERELDAAITSGGSTYYADSVKGRFTISRDNAKNTVYLQMNSLKPEDTAVYYCAAVDRRYGPTYKMGYWGQGTQVTVSS | high polyreactivity
7 | QVQLVESGGGLVQAGGSLRLSCAASGRTFVRNAMGWYRQAPGKERELVAAISRGGRTNYADSVQGRFTISRDNAKNTVYLKMNSLKPEDTAVYYCATGAGYYFDYDYWGQVTQVTVSS | high polyreactivity
8 | QVQLVESGGGLVQAGGSLRLSCAASGRTFVSNAMGWYRQAPGKERELVAAISSSGGSTYYADSVKGRFTISRDNAKNTVYLQMNSLKPEDTAVYYCATYPWYSKYRYDHWGQGTQVTVSS | high polyreactivity
9 | QVQLVESGGGLVQAGGSLRLSCAASGRTFVSNSMGWYRQAPGKERELVAAISSSGGSTYYADSVKGRFTISRDNEKNTVYLQMNILKPEETAVYYCANDPWYSKYRYDHWGQGTQVTVSS | high polyreactivity
10 | QVQLVESGGGLVQAGGSLRLSCAASGRTFVSYTMVWYRQAPGKERELVAAISSGGSTTYADSVKGRFTISRDNAKNTVYLQKNSLKPEDTAVYYCNARYGWSYWSKYDYWGQGTQVTVSS | high polyreactivity
11 | QVQLVESGGGLVQAGGSLRLSCAASGRTFVTNAMGWYRQAPGKERELVAAIRWSSDSTYYADSVKGRFTISRDNAKNTVYLQMNSLKPEDTAVYYCAKQWYVAKISYDYWGQGTQVTVST | high polyreactivity
12 | QVQLVESGGGLVQAGGSLRLSCAASGRTFVTNAMGWYRQAPGKERELVAAISSSGGSTYYADSVKGRFTISRDNAKNTVFLQMNSLKPEDTAVYYCAVGGQTKGQYDYWGQGTQVTVSS | low polyreactivity
13 | QVQLVESGGGLVQAGGSLRLSCAASGRTFVTNAMGWYRQAPGKERELVATIRFSGGGTYYAVSVKGRFTISRDNAKNTVYLQMNSLKPEDTAVYYCNADSIDPFLYDYWGQGTQVTVSS | low polyreactivity
14 | QVQLVESGGGLVQAGGSLRLSCAASGRTFVTYAMGWYRQAPGQERELVAAISASGGSTYYADSVKGRFTISRDNAKNTVYLQMNSLKPEDTAVYYCAKTYFLATPYGYWGQGTQVTVSS | low polyreactivity
15 | QVQLVESGGGLVQAGGSLRLSCAASGRTFVTYGMGWYRQAPGKERELVATIRSGTTTNYADSVKGRFTISRDNAKNTVYLQMNSLKPEDTAVYYCNARGLRASSRRYYYWGQGTQVTVSS | high polyreactivity
16 | QVQLVESGGGLVQAGGSLRLSCAASGRTFVVNAMGWYRQAPGKERELVAAITRRGGITYYADSVKGRFTISRDNAKNTVYLQMNSLKPEDTAVYYCAADRSYYPDTRTTYGYNYWGQGTQVTVSS | low polyreactivity
17 | QVQLVESGGGLVQAGGSLRLSCAASGRTFVVNAMGWYRQAPGKERELVAAIYADSVKGRFTISRDNEKNTVYLQMNSLKPEDTAVYYCAASGGTWVNYRPEYDYWGQGTQVTVSS | low polyreactivity
18 | QVQLVESGGGLVQAGGSLRLSCAASGRTFVVYAMGWYRQAPGKERELVAAISWSGGLTYYADSVKGRFTISRDNAKNTVYLQLNSVKPEDTAVYYCAAEVYLYKYVYYYWGQGTQVTVSS | high polyreactivity
19 | QVQLVESGGGLVQAGGSLRLSCAASGRTFVWNVMGWYRQAPGKEREFVAAISGGSTYYADSVKGRFTISRDNAKNTVYLQMTSLKPEDTAVYYCAADSKLHPRYEYWGQGTQVTVSS | low polyreactivity
20 | QVQLVESGGGLVQAGGSLRLSCAASGRTFVYNAMGWYRPAPGKERELVAAIDGGGDRTYYADSVKGRFTISRDNAKNTVYLQMNSLKPEDTAVYYCARDPGDTYYYSYPEGDYWGQGTQVTVSS | low polyreactivity
21 | QVQLVESGGGLVQAGGSLRLSCAASGRTFVYNAMGWYRQAPGKERELVAAIDGGGDRTYYADSVKGRFTISRDNAKNTVYLQMNSLKPEDTAVYYCARDPGDTYYYSYPEGDYWGLGTQVTVSS | low polyreactivity
22 | QVQLVESGGGLVQAGGSLRLSCAASGRTFVYNAMGWYRQAPGKERELVAAITSGGRTYYADSVKGRFTISRDNAKNTVYLQMNSLKPEDTAVYYCNAGVGARESDYWGQCTQVTVSS | low polyreactivity

Row | Sequence | polyreactivity (PSR sort gate)
23 | QVQLVESGGGLVQAGGSLRLSCAASGRTFVYNAMGWYRQAPGKERELVAAITTSGASTYYADSVKGRFTISRDNAKNTVYLQMNSLKPEDTAVYYCNAYSRYSYGRTYGYWGQGTQVTVSS | high polyreactivity
24 | QVQLVESGGGLVQAGGSLRLSCAASGRTFVYNAMGWYRQAPGKERELVAGITGSGDSTYYADSVKGRFTISRDNAKNTVYLQMNSLKPEDTAVYYCNQLVEEDYWGQGTQVTVSS | low polyreactivity
25 | QVQLVESGGGLVQAGGSLRLSCAASGRTFVYNAMGWYRQAPGNERELVAAITSGGRTYYADSVKGRFTISRDNAKNTVYLQMNSLQPEDTAVYYCAKRFWFNTYAAHPAGFDYWGQGTQVTVSS | low polyreactivity
26 | QVQLVESGGGLVQAGGSLRLSCAASGRTFVYNAMGWYRQEPGKERELVAAITWNGGSKYYADSVKGRFTISRDNAKITVYLQMNSLKPEDTAVYYCNRDVRYVGPSGFDYWGQGTQVTVSS | high polyreactivity
27 | QVQLVESGGGLVQAGGSLRLSCAASGRTFVYYAMGWYRQAPGKERELVAAITWSGGRTYYADSVKGRFTISRDNAKNTVYLQMNSLKPEDTAVYYCNRDQWPWESGYAYNYWGQGTQVTVSS | low polyreactivity
28 | QVQLVESGGGLVQAGGSLRLSCAASGRTFVYYAMGWYRQAPGTERELVAAITFSGGYTYYADSVKGRFTISRDNAKNTVYLQMNSLKPEDTAVYYCAAQYRYSYPLGDYWGQGTQVTVSS | low polyreactivity
29 | QVQLVESGGGLVQAGGSLRLSCAASGRTFVYYAMGWYSQAPGKERELVAAISSSGGSTSYADSVNGRFTISRDNAKNTVYLQMNSVKPEDTAVYYCAADVSVSGYYYWGQGTQVTVSS | high polyreactivity
30 | QVQLVESGGGLVQAGGSLRLSCAASGRTFVYYAMVWYRQAPGKERELVATISRRGGGTYYADSVKGRFTISRDNAKNTVYLQMNSLKPEDTAVYYCNAKWTSHGTYAEDYWGQGTQVTVSS | high polyreactivity
31 | QVQLVESGGGLVQAGGSLRLSCAASGRTFVYYDMGWYRQAPGKERELVASINWSGGSTYYADSVKGRFTISRDNAKNTVYLQMNSLKPEDTAVYYCAKEEITEWGVDSWGQGTQVTVSS | low polyreactivity
32 | QVQLVESGGGLVQAGGSLRLSCAASGRTFVYYDMGWYRQAPGKERELVASISSGDSTNYADSVKGRFTISRDNAKNTFYLQMNSLKPEDTAVYYCAAQYSWGHYYTFDYWGLGTQVTVSS | low polyreactivity
33 | QVQLVESGGGLVQAGGSLRLSCAASGRTFWDNAMGWYRQAPAKERELVAAITFRGGTTYYADSVKGRFTISRDNAKNTVYIQMNSLKPEDTAVYYCAARNGLYRLYYYWGQGTQVTVSS | high polyreactivity
34 | QVQLVESGGGLVQAGGSLRLSCAASGRTFWEHAMGWYRQAPGKERELVAAISGDSGSTYYADSVKGRFTISRDNANNSVYLQMNSLKPEDTAVYYCAGDSDRDDSYPYYYWGQGTQVTVSS | low polyreactivity
35 | QVQLVESGGGLVQAGGSLRLSCAASGRTFWFYAMGWYRQAPGKERELVASITSGGGTNYADSVKGRFTISRDNAKNTVYLQMNRLKPEDTAVYYCAAARKLDATTYYKFDYWGQVTQVTVSS | high polyreactivity
36 | QVQLVESGGGLVQAGGSLRLSCAASGRTFWGNAMGWYRQAPGKEREFVAGITQSDGSTYYADSVKGRFTISRDNAKNTVYLQMNSLKPEDTAVYYCAATPYSTQGLRPKFDYWGQGTQVTVSS | low polyreactivity
37 | QVQLVESGGGLVQAGGSLRLSCAASGRTFWGYALGWYRQAPGKERELVAAISSGGETTYADSVKGRFTISRDNAKNTVYLQMNSMKPEDTAVYYCAADRWITVYILGADGYDYWGQGTQVTVSS | low polyreactivity
38 | QVQLVESGGGLVQAGGSLRLSCAASGRTFWGYAMGWYRQAPGKERELVAAISWSGTSTYYADSVKGRFTISRDNAKNTVYLQMNSLKPEDTAVYYCARAVNDWRRKYNYWGQGTQVTVSS | high polyreactivity
39 | QVQLVESGGGLVQAGGSLRLSCAASGRTFWKYVMGWYRQAPGKERELVAVISRPAGSTYYADSVKGRFTISRDNAKNSVYLQMNSLKPEDTAVYYCAKRPKNKPVLGDYDHWGQGTQVTVSS | low polyreactivity
40 | QVQLVESGGGLVQAGGSLRLSCAASGRTFWRNAMGWYRQAPGKERELVAAINSGGRTYYADSVKGRFTISRDNAKNTVYLQMNSLKPEDTAVYYCAAVYSQSTKRYELYYWGQGTQVTVSS | high polyreactivity
41 | QVQLVESGGGLVQAGGSLRLSCAASGRTFWRYAMGWYRQAPGKERELVAAITSGGGSTYYADSVKGRFTISRDNAKNTVSLQMNSLKPEDTAVYYCNRAGRGRSFKGDYWGQGTQVTVSS | high polyreactivity
42 | QVQLVESGGGLVQAGGSLRLSCAASGRTFWRYAMGWYRQAPGKEREVVAAISRRGDSTYYADSVKGRFTISRDYAKNTVYLQMNSLKPEDTAVYYCNKGYAYSHDDPYWYSPRYDYWGQGTQVTVSS | low polyreactivity
43 | QVQLVESGGGLVQAGGSLRLSCAASGRTFWRYAMGWYRQAPWKERELVARISWRGGSTNYADSVKGRFTISRDNAKNTVYLQMNSLKPEDTAVYYFNAEVLNYLVFGYQLGYDYWGQGTQVTVSS | low polyreactivity
